The values that follow come from US20250136677A1 (ZOETIS SERVICES, published 2025).

Experiment [1] addresses T1, wildtype feline IL-31 protein (Feline_IL31_wildtype) (feline).
T1 chain: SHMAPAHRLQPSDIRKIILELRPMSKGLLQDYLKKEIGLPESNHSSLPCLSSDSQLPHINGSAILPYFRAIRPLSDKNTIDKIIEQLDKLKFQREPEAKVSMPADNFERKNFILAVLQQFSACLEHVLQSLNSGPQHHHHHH
In words: cell-based or functional assay.

The target in experiment [2] is T2, canine IL-31 protein (Canine_IL31) (canine).
T2 chain: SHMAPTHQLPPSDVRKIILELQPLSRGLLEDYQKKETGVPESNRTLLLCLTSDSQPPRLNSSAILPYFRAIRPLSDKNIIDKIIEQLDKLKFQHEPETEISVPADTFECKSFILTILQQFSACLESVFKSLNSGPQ

For experiment [3], the target named is T1, wildtype feline IL-31 protein …. As to the kind of experiment: cell-based or functional assay.
In experiment [4] the target is T2, canine IL-31 protein (Canine_IL31). In words: cell-based or functional assay.
The target of experiment [5] is T1, wildtype feline IL-31 protein …. As to the kind of experiment: SPR (Biacore), feline IL-31 (SEQ ID NO 157). The procedure:
The affinity with which candidate mAbs bind canine and feline IL-31 was determined using surface plasmon resonance (SPR) on a Biacore system (Biocore Life Sciences (GE Healthcare), Uppsala, Sweden). To avoid affinity differences associated with differential surface preparation that can occur when immobilizing antibodies to surfaces; a strategy was employed where IL-31 was directly conjugated to the surface. Immobilization was obtained by amine coupling 5 μg/mL IL-31 using N-hydroxysuccinimide (NHS)/1-Ethyl-3-(3-dimethylaminopropyl) carbodiimide (EDC) chemistry. Chips were quenched with ethanolamine and the affinity with which all candidate mAbs bound to the immobilized IL-31 was evaluated. All curves were fit to a 1:1 model. […] Results for affinity measurements are described herein.
Cellular potency was assessed using feline IL-31 to stimulate pSTAT3 signalling in FCFW4 cells. IC₅₀ vlaues were calculated for each antibody as described previously in this application. […] It is worth noting that both antibodies are considered potent with IC₅₀s in the range of those antibodies previously described herein from the 15H05 lineage (FIG. 3).
In general terms: Surface plasmon resonance follows binding to a sensor surface in real time, without labels.

Experiment [6] shares this target. As to the kind of experiment: cell-based or functional assay.
Experiment [7] deals with T3, equine IL-31 protein (Equine_IL31) (equine).
T3 construct: Recombinant equine IL-31
T3 chain: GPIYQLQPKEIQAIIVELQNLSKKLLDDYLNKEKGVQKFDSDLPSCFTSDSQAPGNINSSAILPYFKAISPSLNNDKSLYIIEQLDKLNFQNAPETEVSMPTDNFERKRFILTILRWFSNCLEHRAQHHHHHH
In words: SPR (Biacore), IL-31 surface, single antibody concentration. Here is the method:
(§1) For the indirect ELISA method, antibody binding to wildtype and feline IL-31 15H05 mutant proteins was assessed. All nine canine monoclonal antibodies (ZIL1, ZIL8, ZIL8, ZIL11, ZIL69, ZIL94, ZIL154, ZIL159, and ZIL171) were capable of binding to wildtype feline IL-31 and binding was impacted by mutations in the mAb 15H05 epitope region confirming the correct binding phenotype determined during the initial screening used to identify them. In comparison, the 11E12 antibody bound to the wild-type feline IL-31 and its binding was not impacted by the mutations in the 15H05 epitope region as evidenced by the data in FIG. 4. To confirm binding, biacore analysis was performed using canine, feline, equine, human, feline 15H05 mutant, and feline 11E12 mutant IL-31 proteins as surfaces and a single test concentration of antibody. Similar to ELISA observations, all antibodies tested bound to wildtype feline IL-31. In agreement with the data described above in this section, mouse antibodies 11E12 and 15H05 both bound to canine and feline IL-31 surfaces. Three additional antibodies where shown to have this dual binding property, ZIL69 (partial canine binding), ZIL94, and ZIL159. From this group of nine fully canine antibodies, only ZIL1 and ZIL9 cross-reacted with equine IL-31. Of note, antibody 15H05 was the only one of all assayed herein that bound to canine, feline, and equine IL-31 indicating some level of epitope conservation across the three species. In contrast, none of the antibodies described herein bound to human IL-31. Additional biacore surfaces were used to verify ELISA observations showing differential binding of antibodies to wildtype feline IL-31 and two proteins with mutations in the 15H05 (15H05 mutant) or 11E12 (11E12 mutant) epitopes.

The target of experiment [8] is T4, mutant feline IL-31 15H05 protein (Feline_IL31_15H05_mutant) (feline).
T4 construct: also called feline 15H05 mutant; 15H05 IL-31 mutant
T4 chain: T1 chain with P103A, D105A
As to the kind of experiment: indirect ELISA, IL-31 protein coated. The procedure: as §1, with “epitopes. […] In agreement with the ELISA results, all fully canine antibodies were impacted by the 15H05 mutation with the exception of ZIL94, ZIL154, and ZIL171 (partially affected). Differing results can be attributed to differences in the two assay methodologies.” for “epitopes.”

The target of experiment [9] is T1, wildtype feline IL-31 protein …. In words: indirect ELISA, IL-31 protein coated. The procedure: as §1, with “epitopes. […] In agreement with the ELISA results, all fully canine antibodies were impacted by the 15H05 mutation with the exception of ZIL94, ZIL154, and ZIL171 (partially affected). Differing results can be attributed to differences in the two assay methodologies.” for “epitopes.”

The target in experiment [10] is T5, wildtype feline IL-31 protein (Feline_IL31_wildtype) (feline).
T5 sequence: T1 chain

The target is the same in experiment [11]. In words: Biacore, feline IL-31 chip, mAb 100 nM, share of points within parent mean +/-3 SD.
The target in a further experiment is T6, human IL-31 (human, UniProt Q6EBC2 24-164).
T6 sequence: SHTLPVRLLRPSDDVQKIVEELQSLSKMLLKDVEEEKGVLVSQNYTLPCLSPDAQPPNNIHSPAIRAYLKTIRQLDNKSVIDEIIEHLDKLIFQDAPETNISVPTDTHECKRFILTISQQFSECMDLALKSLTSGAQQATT
In words: SPR (Biacore), IL-31 surface, single antibody concentration. Here is the method:
as §1

For experiment [12], the target named is T2, canine IL-31 protein (Canine_IL31). As to the kind of experiment: SPR (Biacore), IL-31 on chip, 1:1 fit.
Experiment [13] has as its target T1, wildtype feline IL-31 protein …. As to the kind of experiment: SPR (Biacore), IL-31 on chip, 1:1 fit. A digest of the protocol: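 IL-31 was amine-coupled (NHS/EDC) to the chip at 5 μg/mL and quenched with ethanolamine, and candidate mAbs were flowed over it as analytes. Binding curves were fitted to a 1:1 model.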

Residue numbers refer to the chain shown, from its start.

B1: 15H05 mouse:canine chimera (antibody)
heavy: QVQLQQSAAELARPGASVKMSCKTSGYTFTSYTIHWIKQRPGQGLEWIGNINPTSGYTENNQRFKDKTTLTVDRSSNTAYLQLHSLTSEDSAVYFCARWGFKYDGEWSFDVWGAGTTVTVSSASTTAPSVFPLAPSCGSTSGSTVALACLVSGYFPEPVTVSWNSGSLTSGVHTFPSVLQSSGLYSLSSMVTVPSSRWPSETFTCNVAHPASKTKVDKPVPKRENGRVPRPPDCPKCPAPEMLGGPSVFIFPPKPKDTLLIARTPEVTCVVVDLDPEDPEVQISWFVDGKQMQTAKTQPREEQFNGTYRVVSVLPIGHQDWLKGKQFTCKVNNKALPSPIERTISKARGQAHQPSVYVLPPSREELSKNTVSLTCLIKDFFPPDIDVEWQSNGQQEPESKYRTTPPQLDEDGSYFLYSKLSVDKSRWQRGDTFICAVMHEALHNHYTQESLSHSPGK
light: DIQMNQSPSSLSASLGDTITVTCRASQGISIWLSWYQQKPGNIPKVLINKASNLHIGVPPRFSGSGSGTHFTLTITSLQPEDIATYYCLQSQTYPLTFGGGTKLEINRNDAQPAVYLFQPSPDQLHTGSASVVCLLNSFYPKDINVKWKVDGVIQDTGIQESVTEQDKDSTYSLSSTLTMSSTEYLSHELYSCEITHKSLPSTLIKSFQRSEC
In the case of B1, the “IC50, feline IL-31 signaling on the canine DH82 cell line (pSTAT3)” value in experiment [1] is 0.71 µg/ml. The same molecule showed an IC50, inhibition of canine IL-31-induced STAT3 phosphorylation, canine DH82 cells in experiment [2] of 12.7 µg/mL. Moreover, the “IC50, inhibition of feline IL-31-induced STAT3 phosphorylation, feline FCWF4 cells” value in experiment [3] turned out to be 3.11 µg/mL. For the same molecule, the IC50 against canine IL-31 (pSTAT3; cell type not stated for this pair of values) in experiment [4] was 12.5 µg/ml.

B2: ZTS-5865 (antibody, V domains shown)
VH: DVQLVESGGDLVKPGGSLRLTCVASGFTFSDYAMNWVRQAPGKGLQWVAGIDSVGSGTSYADSVKGRFTISRDNAKNTLYLQMSGLKTEDTATYYCASGFPGSFEHWGQGTLVTVSS
VL: QSVLTQPSSVSGTLGQRITISCTGSSSNIGSGYVGWYQQVPGMGPKTVIYYNSDRPSGVPDRFSGSKSGSSGTLTITGLQAEDEADYYCSVYDRTFNAVFGGGTHLTVLG
notes: see recheck
In general, Kd refers to the concentration at which binding is half-saturated. For orientation: kon means the rate constant with which the complex forms. Low readings indicate slower complex formation, high ones faster complex formation. In [5], B2 came in with a dissociation constant Kd of 2.12 nM and a kon of 76200 M⁻¹ s⁻¹. Moreover, the “IC50, inhibition of feline IL-31 induced pSTAT3 in feline FCWF4 cells” value in experiment [6] came out at 9.08 µg/ml.

B3: ZIL94 (recombinant fully canine antibody) (antibody, V domains shown)
VH: EVQLVDSGGDLVKPGGSLRLSCVASGFTFSTYFMSWVRQAPGRGLQWVALISSDGSGTYYADAVKGRFTISRDNAKNTLYLQMNSLRAEDTAMYYCAIFWRAFNDWGQGTLVTVSS
VL: QTVVIQEPSLSVSPGGTVTLTCGLNSGSVSTSNYPGWYQQTRGRTPRTIIYDTGSRPSGVPNRFSGSISGNKAALTITGAQPEDEADYYCSLYTDSDILVFGGGTHLTVLR
notes: also called CAN-ZIL94
For the molecule B3, the binding result in experiment [7] is recorded as “no binding”. The entries for the “ELISA OD” value in experiment [8] and in experiment [9] were 1.3 OD and 1.67 OD, respectively.

B4: A14 (antibody, V domains shown)
VH: QVLLVQSGAEVRTPGASVKIFCKASGYSFTSYTIHWLRQAPAQGLEWMGNINPTSGYTENNQRFKDRLTLTADTSTNTAYMELSSLRSADTAMYYCARWGFKYDGEWSFDVWGAGTTVTVSS
VL: EIQMTQSPSSLSASPGDRVTITCRASQGISIWLSWYQQKPGNIPKVLIAKASNLHIGVPSRFSGSGSGTDFTLTISSLEPEDAATYYCLQSQTYPLTFGGGTKLEIK
In the case of B4, the % Inhibition Relative to Parent (pSTAT, FCWF-4 cells) in experiment [10] is -5.4%. The Binding Similarity score in experiment [11] is 8.4.

B5: A22 (antibody, V domains shown)
VH: B4 VH
VL: B4 VL with A49N, S91A
Turning to B5, the % Inhibition Relative to Parent (pSTAT, FCWF-4 cells) in experiment [10] was -4.3%. Also, in experiment [11], the Binding Similarity score was determined as 8.34.

B6: mouse anti IL-31 antibody 11E12 (antibody, V domains shown)
VH: QVQLQQSGAELVKPGASVKLSCKASGYTFKYYDINWVRQRPEQGLEWIGWIFPGDGGTKYNETFKGKATLTTDKSSSTAYMQLSRLTSEDSAVYFCARGGTSVIRDAMDYWGQGTSVTVSS
VL: DIVLTQSPASLAVSLGQRATISCRASESVDNYGISFMHWYQQKPGQPPKLLIYRASNLESGIPARFSGSGSRTDFTLTINPVETDDVATYYCQQSNKDPLTFGAGTKLELK
notes: Mouse monoclonal comparison antibody; also called MU-11E12; mouse 11E12
For orientation: koff means a measure of how fast the partners let go of each other. Higher therefore signals fast dissociation. Regarding B6, the binding result (in experiment [7]; in the experiment with human IL-31) was “no binding” throughout. The results for the Kd in experiment [12] and in experiment [13] were 0.000763 nM and 0.738 nM, respectively. Moreover, the off-rate (koff) came to 4.8e-07 s⁻¹ in experiment [12] and 0.000123 s⁻¹ in [13]. The kon was found to be 629000 M⁻¹ s⁻¹ in [12] and 167000 M⁻¹ s⁻¹ in experiment [13]. Also, the results for the “ELISA OD” value in experiment [8] and in [9] were 1.33 OD and 1.15 OD, respectively. The “IC50, inhibition of feline IL-31-induced STAT3 phosphorylation, canine DH82 cells” value in experiment [3] turned out to be 2.47 µg/mL. Besides, the “IC50, inhibition of feline IL-31-induced STAT3 phosphorylation, feline FCWF4 cells” value in experiment [3] is 2.01 µg/mL.
